From patent publication CN111647076A (UNIV NANJING MEDICAL, dated 2020)

B1: 4D5-hFc重组蛋白 (Fc fusion)
chain: EVQLLESGGGLVQPGGSLRLSCAASSFDFSSYEMSWVRQAPGKALEWIGEIHHSGSTYYNPSLKSRVTISRDNSKNTLYLQMNSLRAEDTAMYYCVKDLGFADHWGQGTLVTVSS
B2: 4A10-hFc重组蛋白 (Fc fusion)
chain: EVQLLESGGGLVQPGGSLRLSCAASSFDFSDYEMSWVRQAPGKGLEWIGEIHHSGSTYYNPSLKSRVTISRDNSKNTLYLQMNSLRAEDTATYYCVKDFVVGETAEFSYWGQGTLVTVSS
B3: 4C5-hFc重组蛋白 (Fc fusion)
chain: EVQLLESGGGLVQPGGSLRLSCAASDFYFADYEMSWVRQAPGKGLEWIGSIYHSGSTYYNPSLKSRVTISRDNSKNTLYLQMNSLRAEDTAMYYCAREWHSGYDYWGQGTLVTVSS
B4: 4A12-hFc重组蛋白 (Fc fusion)
chain: EVQLLESGGGLVQPGGSLRLSCAASDFAFSSYEMSWVRQAPGKGLEWIGEIHHSGSTYYNPSLKSLVTISRDNSKNTLYLQMNSLRAEDTAVYYCVKDFGHLGQMASWGQGTLVTVSS
B5: 4D5噬菌体 (single-domain antibody 4D5 displayed on phage) (VHH)
VHH: B1 chain
notes: also called 抗体4D5
B6: 4A10噬菌体 (single-domain antibody 4A10 displayed on phage) (VHH)
VHH: B2 chain
notes: also called 抗体4A10
B7: 4C5噬菌体 (single-domain antibody 4C5 displayed on phage) (VHH)
VHH: B3 chain
notes: also called 抗体4C5
B8: 4A12噬菌体 (single-domain antibody 4A12 displayed on phage) (VHH)
VHH: B4 chain
notes: also called 抗体4A12

The binders below were run against SARS-Cov-2 spike on lentiviral pseudovirus (SARS-Cov-2, UniProt P0DTC2 14-1273) (assay: cell-based or functional assay).

Row | Binder | IC50 of pseudovirus infection of ACE2-CHO cells (Luciferase活性) [µg/mL]
1 | B1 | 1.13
2 | B2 | 0.66
3 | B3 | 2.32
4 | B4 | 0.19

What follows are binders tested against T1, SARS-Cov-1-RBD-hFc (SARS-Cov-1, UniProt P59594 306-527) (assay: phage ELISA, antigen coated at 5 μg/ml, anti-M13-HRP).
T1 construct: domain: RBD

Row | Binder | binding result
5 | B5 | no binding
6 | B6 | no binding
7 | B7 | no binding
8 | B8 | no binding
